The record followed here is patent US20160289339A1 (IMMUNWORK, published 2016).

Assay [1] concerns the target T1, synthetic polypeptide maF1-2 (human).
T1 peptide: GSCSVADWQMPP
Nature of the assay: ELISA on coated synthetic polypeptides. The method, then:
(§1) Anti-migis-α mAbs 8G7 (Igγ2b, κ) and 29C11 (Igγ1, κ) were purified from hybridoma culturing medium by using Protein A Sepharose CL-4B medium (GE Healthcare). Purified mAbs were stored in PBS at the concentration of 1 mg/ml. A mouse anti-human IgA1.Fc mAb 3C10 (Igγ1, Abcam) and mouse total IgG (Sigma-Aldrich) were used as positive and negative controls, respectively. Various migis-α-containing recombinant proteins and several irrelevant proteins were tested in ELISA. Proteins were coated at 1 μg/ml in 0.05M carbonate/bicarbonate buffers in ELISA plates at 4° C. for overnight. Plates were washed with PBST (PBS with 0.05% Tween® 20) and blocked by PBS/BSA (PBS with 1% BSA) at room temperature for 1 h. After washing with PBST, mAbs at 1 μg/ml in PBS/BSA were added into plates and incubated at room temperature for 1 hr. Plates were washed with PBST and then HRP-conjugated goat anti-mouse IgG.Fc antibodies 1:10,000 diluted in PBS/BSA were adding into plates. After incubation at room temperature for 1 hr and washing with PBST, Tetramethylbenzidine substrates (Clinical Scientific Products) were added into plates for colorimetric measurement.
(§2) Synthetic migis-αL polypeptides were further used to study binding epitopes of anti-migis-α mAbs by ELISA. Polypeptides maFL (SEQ ID NO:9), maFa (SEQ ID NO:10), maFb (SEQ ID NO:11), and maFc (SEQ ID NO:12) are fragments that represent the full length, the N-terminal part, the middle part, and the C-terminal part of migis-αL sequences (FIG. 3A). Polypeptides maF1-2 (SEQ ID NO:13), maF1-3 (SEQ ID NO:14), maF2 (SEQ ID NO:15), and maF2-1 (SEQ ID NO:16) were designed to test shorter sequences for binding activity of anti-migis-α mAbs. Polypeptides at 10 μg/ml were coated in micro-well plates for reacting and ELISA procedures were followed as described above. […] In contrast, 29C11 is capable of binding to both the N-terminal and the middle part of migis-αL sequences, and also reacting to short fragments of the N-terminal polypeptides. (FIGS. 3B-C).
Background: ELISA stands for enzyme-linked immunosorbent assay.

The target in assay [2] is T2, synthetic polypeptide maF1-3 (human).
T2 peptide: CSVADWQMPPPY
The assay can be described thus: ELISA on coated synthetic polypeptides. The method, then: as §1, §2

The target of assay [3] is T3, synthetic polypeptide maF2 (human).
T3 peptide: VADWQMPPPYVV
Nature of the assay: ELISA on coated synthetic polypeptides. How it is done: as §1, §2

Assay [4] has as its target T4, synthetic polypeptide maF2-1 (human).
T4 peptide: DWQMPPPYVVLD
Nature of the assay: ELISA on coated synthetic polypeptides. How it is done:
as §1, §2

Assay [5] concerns the target T5, mα1.Fc recombinant protein (human, UniProt P01876 103-333).
T5 construct: leader/His tag/linker of the vector as for the other constructs
Nature of the assay: ELISA screening of hybridoma culture medium. How it is done:
Fifty microgram of the chimeric protein was used to immunize each Balb/c mouse subcutaneously for 4-5 times in a two-week interval. Three days before cell fusion, ten microgram of the chimeric protein was injected into each mouse intravenously. The splenocytes isolated from immunized mice were fused with mouse myeloma cells FO by using polyethylene glycol 1500 (Roche). After fusion procedures, cells were grown in HAT selection medium for 10-12 days and the cultured medium was transferred for ELISA screening (detailed in the next section). […] Hybridoma clones which produce antibodies reacting to mα1.FcL-LZ and not reacting to mα1.Fc were identified as candidates by using horseradish peroxidase (HRP)-conjugated goat anti-mouse IgG.Fc antibodies (Jackson ImmunoResearch) in ELISA. To further test the binding of hybridoma candidates towards mIgA-expressing B cells, 2×10⁵ DAKIKI cells were incubated with 100 μl of cultured medium on ice for 30 min. Cells were washed with staining buffers [PBS with 2% fetal bovine serum (FBS, Invitrogen) and 0.05% sodium azide] and incubated with FITC-labeled rabbit F(ab)′₂ anti-mouse IgG antibodies (AbD Serotech) 1:400 diluted in staining buffers on ice for 30 min. After washing, cells were resuspended in 200 μl of staining buffer and subjected to flow cytometric analyses. […]

Assay [6] concerns the target T6, mα1.FcS expressed on Ramos cells (human, UniProt P01876 103-398).
T6 construct: also called Ramos/mα1.FcS
Nature of the assay: flow cytometry on Ramos/mα1.FcS cells, 1 µg/ml. The method, then: (§3) For flow cytometric assays in the examples, 3C10 was used as a positive control of detecting mIgA expression and a mouse anti-human mIgE mAb 4B12 (Igγ1, κ) was served as a negative control. To perform the cell staining, 10⁶ cells were washed and incubated with mAbs in 100 μl of staining buffers on ice for 30 min. Cells were subsequently washed with staining buffers and incubated with FITC-labeled rabbit F(ab)′₂ anti-mouse IgG antibodies […] 1:400 diluted in 100 μl staining buffers on ice for 30 min. After washing, cells were resuspended in 400 μl of staining buffers and subjected to flow cytometric analyses in a FACSCanto II (BD Biosciences). […] At the low concentrations (1 μg/ml) staining signals of 29C11 towards these three mIgA-expressing B cells are undetectable.
(In flow cytometry, cells or beads pass a laser one at a time.)

In assay [7] the target is T7, synthetic polypeptide maFa, N-terminal part of migis-αL (human).
T7 construct: also called the N-terminal polypeptide
T7 peptide: GSCSVADWQMPPPYVVLD
Nature of the assay: ELISA on coated synthetic polypeptides, 10 µg/ml. The method, then: as §1
Synthetic migis-αL polypeptides were further used to study binding epitopes of anti-migis-α mAbs by ELISA. […]

Assay [8] has as its target T8, mα1.FcL-456S-LZ recombinant protein (human).
T8 construct: also called mα1.FcL-LZ
T8 chain: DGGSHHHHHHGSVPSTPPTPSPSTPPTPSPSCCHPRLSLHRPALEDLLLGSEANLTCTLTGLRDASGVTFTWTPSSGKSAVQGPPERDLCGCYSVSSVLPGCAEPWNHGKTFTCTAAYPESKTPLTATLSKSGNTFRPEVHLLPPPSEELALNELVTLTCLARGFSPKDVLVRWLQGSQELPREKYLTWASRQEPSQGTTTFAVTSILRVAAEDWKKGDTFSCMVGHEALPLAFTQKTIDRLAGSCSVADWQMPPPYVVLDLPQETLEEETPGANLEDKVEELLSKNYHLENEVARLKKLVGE
Nature of the assay: ELISA, serial dilution of mAb on coated mα1.FcL-456S-LZ. How it is done:
as §1
The binding curves were analyzed by the software Prism® (GraphPad) and the equation used for calculation was shown below.

Assay [9] has as its target T9, membrane-bound IgA (mIgA) on DAKIKI cells (human, UniProt P01876 1-398).
T9 construct: whole, on cells; also called mIgA-expressing B cells
Nature of the assay: flow cytometry on DAKIKI cells, 10 µg/ml against 1 µg/ml. How it is done:
as §3

Assay [10] has as its target mα1.FcL-456C expressed on Ramos cells (human, UniProt P01876 103-398). The assay can be described thus: flow cytometry on Ramos/mα1.FcL-456S (so in the source) cells, 1 µg/ml. How it is done:
as §3

T9 sequence (P01876 whole entry): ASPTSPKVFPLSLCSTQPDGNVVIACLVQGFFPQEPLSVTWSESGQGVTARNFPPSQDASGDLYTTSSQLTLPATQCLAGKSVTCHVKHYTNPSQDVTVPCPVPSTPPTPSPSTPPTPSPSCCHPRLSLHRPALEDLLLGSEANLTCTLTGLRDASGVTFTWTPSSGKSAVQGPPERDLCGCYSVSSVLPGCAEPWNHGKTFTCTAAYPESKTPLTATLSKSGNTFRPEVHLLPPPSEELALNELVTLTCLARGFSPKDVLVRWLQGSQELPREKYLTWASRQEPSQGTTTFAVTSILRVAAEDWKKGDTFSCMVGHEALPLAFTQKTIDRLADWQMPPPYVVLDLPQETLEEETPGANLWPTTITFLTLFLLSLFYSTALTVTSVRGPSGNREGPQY

B1: anti-migis-α mAb 8G7 (antibody, V domains shown)
VH: EVQLQESGPSLVKPSQTLSLTCSVTGDSITNGYWNWIRKFPGNKLEYMGYISYSGSTYYNPSLKSRIFITRDTSKNQYYLQLNSVTTEDTAIYYCARWLGGRAYWGQGTTLIVSS
VL: DIVMTQSQKFMSTSVGDRVSVTCKASQNVGTNVVWYQQKPGQSPKTLIYSASRRFSGVPDRFTGSGSGTDFTLTISNVQSEDLAEYFCQQYNSYPLTFGAGTKLELK
notes: also called 8G7 mAb
On to B1, for which the binding result is reported as “no binding (tested: 10 µg/ml peptide coated)” in assay [1]; “no binding (tested: 10 µg/ml peptide coated)” in assay [2]; “no binding (tested: 10 µg/ml peptide coated)” in [3]; “no binding (tested: 10 µg/ml peptide coated)” in assay [4]; “no binding” in assay [5]; “binds” in assay [7]. For the same molecule, the entries for the “fold of MFI over background against that of 29C11, (MFI8G7-MFIbackground)/(MFI29C11-MFIbackground)” value in assay [6] and in assay [10] were 10.4 fold and 13.5 fold, respectively. Besides, in assay [8], the “fold lower concentration at half the maximum binding than 29C11” value was approximately 6 fold. Moreover, the “fold of the increment of MFI (high minus low concentration, over background) against that of 29C11” value in assay [9] was 12.5 fold.
